Assay results reported in a protein production outcome set (Wang et al. 2014).

Assay: label from the status in PepcDB records

Question: With “MTESATASRSWHLQATIRRLVLTAFVAGQTGLASWFLLQVLPYHGGNVVEWLIVAVFAVLYLWIAFGFWIAVYGFLLRLLGGDRASLLKRHTPNELAATPLSKTAIVMPLYHEPVSWTLKGLKAIYLDLARSGRLDDFDFYILSDSQDPDVWLQEQQVWLKLVEELGAHGRLFYRRRRVNLNYKSGNVADFLRRWGSQYQYMVVLDADSLLAGDTIRTMVQVMNREPQVGILQTAPTIINARSAFARIQQFANRLYSPLFATGLAAIQMGDAAFWGHNAVIRVAPFMAHCGLPKLKGAGIWQGPIMSHDFVEAAFLGRAGYEVWLEPALGASYEESPPTLDDELARDQRWSKGNLQHAALMLFSPRLRLAHRFAFLNGIMAYASSPLWLLFLVLTTIAAVQLTIAPIDYFPDGRESPFPLWPEWRPTWAITLVVSTMALLFLPKFLAIVDVVAHRTLSGFGGFFRLLCSVLLEIVVSVLLAPIRMLAHSHSVVSALLNVRLSWAGQNRTEETGWREAAVRHLPGLIIGSAWSAFAWTLDPMFFLWSLPVSIPLALAAPTTVWLSRSSSGESLSRRGLLLTPEERTRMPLLDDARGFREEAESEVALTPVEQAVLIPAVNRLHRQLAGRGAKGLKKEVIEGELDACVSRGYRGIEKGRLSLLLEDPQALTALHRRAWSAPSDSFWGQRVRNLVLHAQGLQDL” as the sequence, how does the protein production read?
Answer: failed

Question: With “MVEVTIWLAFFAGVVSFLSPCVFPLVPVYLAQLTGTQISGNEITADRKLILMRSLGFILGFTSIFIFLGASSTFIGQLFWGNRQLFEQIGGIIITVFGLQMMGVISIRMLLSEKRLQAKPRQSASFANSVLIGFLFATGWTPCIGLVLGAILVLAGDANTMWSGMSMLFVYSMGLAIPFFLVALLWSRSLHKVRKLNKWLPTIQKGSGVVMVALGVLLFTGQFSTIAAYLARINPFGI” as the sequence, how does the protein production read?
Answer: failed

Question: For “MPVSQQCIKACGFMHPRRLQWLTFSTSPAHPVRLFLAHLYSFASRFVMTTPNPDPLHGVTLEQILRALIEHYEWSGLAERIDIRCFKSDPSIKSSLTFLRKTPWAREKVEALYVKLHRGKGW”, which protein production is on record?
Answer: failed

Question: For “MGHHHHHHSHMGKGTFVYRTTITSPHEEVWAFFSSPTNLQTLTKIPKVVLDSTSETTQGSEIEMKLFVLGIPFQWKAYIEAYNPPFSFTDVAIKMPFPIVYWRHTHRFTTEGERTVMIDEIQYEIKMANKLVIFFLRRMFRARESALHRYFQS”, which protein production is on record?
Answer: not failed

Question: With “MGANEDQEMELEALRSIYEGDNSFRELSPVSFQYRIGEDGDPKAFLIEVSWTETYPQTAPVISMNAFFNNTISSAVKQSILAKLQEAVEVNLGTAMTYTLFEYAKDHKEQFMENHHPGNSATPVANIISVETPTTAPSSKKKEKKEQLSKAQKRKLADKTDHKGELPRGWNWVDVVKHLSKTGSKDDE” as the sequence, how does the protein production read?
Answer: failed

Question: Which protein production does the source give for “MNRISVVILNWNGCEMLRSFLPSVLRYSEAEGVEVCVADNGSTDQSVEMLRREFPSVRRILLDGNHGFADGYNLALRQVEAEYVVLLNSDVEVTGQWLQPMAAYLDAHPEVAACQPKIRSWRQKEWFEYAGAAGGFIDRYGYPFCRGRVMGVVEADRGQYDTVLPIFWATGAAMFIRLADYREAGGLDGRFFAHMEEIDLCWRLRARGRGIVCIPQSVVYHVGGATLKKENPHKTFLNFRNNLVMLYKNLPDRELAGVMRVRCWLDYIAAATFALKGQPANAKAVVRARREFKLLRDSFRDARAENLRKTSSHFIPERIKSSILVQFYVKGRKFFSQLSDLKG” here?
Answer: failed

Question: With “MPTVAPLDIEGHVVSTHFLGDIPLFATAAGTIHRLDGGEKVTEAHDGLLTCIRDPYSATLLSGGEDGRVLRIGHDGSISEIANVPRKWVGVVAGGPQKAVAYGVGKSSFVRLSDCTVKEFKEERTVEAIAFAPKGLRIAVARYNGVTLHWVATAGDPVDLEWKGAHTGVTFSPDGKFLVTTMQENALHGWKMEATKGGMEARHMRMTGYPAKVKSISWSVKGKWLASSGAPAAIVWPFSGKDGPMGKAPEELGSRANIMATNVAFHPVEDVLAIGFIDGMILGVRLADGKEALLRRPGKGAITSMDWSATGNLLAFASEAGDCGIIDISALEHHHHHH” as the sequence, how does the protein production read?
Answer: failed

Question: Which protein production does the source give for “MFGPFKPAPHIAELPAEKIDSTYKRLRWQVFAGIFFGYAAYYFVRANFDLAQPGLIQAGLYSKAELGVIGSAAGLAYGLSKFVMAGMSDRSNPRVFLPFGLLLSGLCMTLMGLFPWATSGIAIMWVMIFLNGWFQGMGWPPCGRTMVHWWSKSERGTIVSIWNTAHNIGGMVPGAMVLLASAIFFSTHGIEAQAKDVWQQSLYFPGIAAMIFAIPVYFVMRDTPQSCGLPSIEKWRNDYPDDYNEKTYENDLTAKEIFVTYVLKNKLLWYIAIANVFVYLIRYGVLKWSPVYLSEVKHFNIKGTAWAYTIYELAAVPGTLLCGWVSDKVFKGKRGLTGFIFMILTTAAVVAYWMNPATPEAELANYSAWYENPYQLTDFVLMTLIGFLIYGPVMLIGLHALELAPKKAAGTAAGFTGLFGYLGGTVSASAVIGWAAQHYGWDGGFYVMIGGGVLAVLLLLIVMVEEGKHKAKLGDTYGTK” here?
Answer: failed

Question: With “MLKLGVIGTGAISHHFIEAAHTSGEYQLVAIYSRKLETAATFASRYQNIQLFDQLEVFFKSSFDLVYIASPNSLHFAQAKAALSAGKHVILEKPAVSQPQEWFDLIQTAEKNNCFIFEAARNYHEKAFTTIKNFLADKQVLGADFNYAKYSSKMPDLLAGQTPNVFSDRFAGGALMDLGIYPLYAAVRLFGKANDATYHAQQLDNSIDLNGDGILFYPDYQVHIKAGKNITSNLPCEIYTTDGTLTLNTIEHIRSAIFTDHQGNQVQLPIQQAPHTMTEEVAAFAHMIQQPDLNLYQTWLYDAGSVHELLYTMRQTAGIRFEAEK” as the sequence, how does the protein production read?
Answer: not failed

Question: Which protein production does the source give for “MKFESYDLAPGIKKSLAEAGFNRPTDIQFKSIPPILAGEDVLAIAQTGTGKTAAFVIPVLNTLINVKKSEHTDISCLVMAPTRELAVQISEVFKKIGAYTRLRTVCITGGVEQEAQIAAADYGIDILVATPGRMFDLIYQKHIKITRVKILVLDEADHMLDLGFIKDIQDVKKFLPARHQTLFFSATINEEIKKLAYSLVKNPIRIQIAPKDRVSKNITHSVAFIGMDDKRFFLERLLKEHPESKVIVFVRTQVRADRVQAAMERVGLKSVTMHGGKEQQARDAAMDAFKNGTVHVLIATDISARGIDIAGVEYVVNYDMPEVAENYVHRVGRTGRGVSKGFAISFCSMEEKPVLDEVEEFLGKEINVIEITGKDYDATLDLTEDVNDNWKALLKEADAETTKKYVPKKKKKK” here?
Answer: failed

Question: Which protein production does the source give for “MDKESVDTLFGMGLTAYQAKDYTKAIHALEHLREHDPSYTTLYSYLAKSYEENGEPEKAIAVLRDGLTQDEFNKEMFLEAGKLAVTLRLPEEAEEFYRQAIVLDEEFSEAIMQLNKLLLAKENYEGVIELVEGLGEEVISEPQIFWDVSVAYQETEQYNKAKANYELAYPHFTNNPTFLKEYGLFLREEGEHAKSQEVLRSYLELEPLEHHHHHH” here?
Answer: not failed

Question: Which protein production does the source give for “KNVNRVLSAEALKPGMLLTGTVSSLEDHGYLVDIGVDGTRAFLPLLKAQEYIRQKNKGAKLKVGQYLNCIVEKVKGNGGVVSLSVGHSEVSTAIATEQQSWNLNNL” here?
Answer: not failed

Question: With “NKYNKIANELIKIIGEDNIISITHCATRLRVMVKDREIINDKKVEKVDEVKGVFFTSGQYQIILGTGIVNKVYAEVEKMGLKTLSKKEQDELVKNNE” as the sequence, how does the protein production read?
Answer: not failed

Question: For “MTQGTARAQQNNIPVGIALMLAATVVFALQDGISRHLASSYNTYMVVMIRYWFFAAFVIALAARSRGGLRAATRTAQPGLQIFRGLLLASEICVAVFAFTVLGLIESMAVFICYPLLVAALSGPVLGEKVGWRRWAAIGVGLVGVLIILQPGMGVFNPWAVVPLISALMFALYGLLTRYAARQDSTATSFFWTGVTGAVAMTAVGLWFWEPMSAPDWRWMALLCVSGALGHWLLIKCYEMAEASAVQPFAYFHLMWTAILGITVFGETLRSAVIIGAALIVAAGLFTLWRERAQSRSR”, which protein production is on record?
Answer: failed

Question: For “SLFVKESHNTSKGPEATWNLNKVHFVYDSSEKTHFKAPVKVNKYIASSHHLSALVTPAGMSYECQAQQTISLASSDPQKTVTMILSAVHIQPFDIISDFVFSEEHKCPVDEQEQLEETLPLILGLILGLVIVITLVIYHIHHKMTANQVQIPRDRSQYKHMG”, which protein production is on record?
Answer: failed

Question: For “MFDPKLLPATRKILDLPARLLVRVGVSADQVTITGFIIGLLAVPFLAFELYEFALAAILLNRLCDGLDGAVARRTQLTDAGGFLDIVLDFIFYSAVVFGFLLASPEQNAIASGLLLVTFMGTGSTFLAFACIAGKRGIENPEYPNKSLHYMGGLTEGFETILAFVAFCLWPQHFSVLAYIFAAACWLTAITRIVAGYRTLKQPGAKPESTNV”, which protein production is on record?
Answer: not failed
